Results reported in patent US12331106B2, “Anti-angiopoietin-2 antibodies that induce Tie2 activation” (Institute for Basic Science, priority 2018, dated 2025).

Assays:
[1] = tested on: Tie2 receptor; test: Tie2 phosphorylation in HUVECs (immunoprecipitation/Western); type: cell-based, human; conditions: antibody 0.02-50 μg/ml with hAng2 1 μg/ml, 30 min
Protocol: Ang2 binds to the Tie2 receptor and acts as a weak agonist or antagonist. The anti-Ang2 antibody developed in this invention binds to Ang2 to induce Ang2-antibody complexes, further causing clustering of Tie2 receptors and consequently enhancing activation of Tie2 receptor. Experiments were conducted to analyze the effect of anti-Ang2 antibody on Tie2 phosphorylation using HUVECs.
Specifically, HUVECs (LONZA™) were cultured in EGM-2 (LONZA™) at 37° C. and 5% CO2 concentration in a 100 mm culture dish. At 80-90% confluency, the cells were changed to EBM-2 (LONZA™) medium for 2 hrs˜ 6 hrs for serum starvation. Humanized anti-Ang2 antibodies at various concentrations (0.02 μg/ml to 50 μg/ml) were mixed with hAng2 protein (1 μg/ml, R&D® Systems) for 30 min. Then, the mixtures were treated with the cultured cells and further incubated for 30 min. The cells were washed twice with cold PBS and then lysed in 1000 μl of lysis buffer (10 mM Tris-Cl pH 7.4, 150 mM NaCl, 5 mM EDTA, 10% glycerol, 1% TRITON™ X-100 (non-ionic polyoxyethylene surfactant), protease inhibitor, phosphatase inhibitor) and then lysed at 4° C. for 60 min. Cell extracts were prepared and centrifuged at 12,000 rpm for 10 min. The supernatant was quantitated by bicinchoninic (BCA) assay.
To 0.5 mg of cell lysate, 1 μg of Tie2 antibody (R&D® Systems, AF313) was added and incubated overnight at 4° C. […]

[2] = tested on: HUVEC monolayer; test: In vitro vascular permeability (leakage) assay, TNF-α induced, FITC-dextran; type: cell-based, human; conditions: HUVECs; pre-treatment antibody 1 μg/ml with Ang2 1 μg/ml 30 min; TNF-α 100 ng/ml 22 hr
Protocol: Vascular leakage assay was carried out in HUVECs using In Vitro Vascular Permeability Assay Kit (Millipore®) according to the manufacturer's instruction. HUVECs were seeded into the insert of the transwell plate and cultured for 3 days for 100% confluence. The HUVECs were pre-incubated with Ang2 (1 μg/ml), Ang2 (1 μg/ml) together with Control, 2C8H11 or 4B9H11 antibody (1 μg/ml) for 30 min, and then TNF-α (100 ng/ml) was added, and the cells were incubated at 37° C. for 22 hr. FITC-dextran was added to the upper chamber and incubated for 20 min. Passage of FITC-dextran though the HUVEC monolayer was measured by a fluorescence reader at excitation and emission wavelengths of 485 and 535 nm, respectively.

[3] = tested on: LLC (Lewis Lung Carcinoma) tumor; test: Tumor growth inhibition in LLC subcutaneous model; type: in vivo, C57BL/6 mice; conditions: LLC s.c.; antibody 10 mg/kg i.p. every 2-3 days; Cpt 3 mg/kg i.p. once
Protocol: 2C8H11 anti-Ang2 antibody was tested for its ability to inhibit tumor growth in LLC (Lewis Lung Carcinoma) cell line tumor model. Specifically, LLC cell line (ATCC) was cultured in DMEM (GIBCO™) supplemented with 10% FBS (GIBCO™). LLC cells (1×10^6 in 100 μl of PBS) were subcutaneously injected into 6˜8-week-old C57BL/6 mice (Jackson Laboratory) which were anesthetized with a mixture of Ketamine and Xylazine. When the volume of the tumors reached 50˜100 mm^3, the mice were intraperitoneally administered with 10 mg/kg of 2C8H11 antibody every 2˜3 days. Cisplatin (Cpt) was injected intraperitoneally once at a dose of 3 mg/kg in both monotherapy and combination therapy groups. The changes in tumor volume was tracked over the following days. Tumor volume (V) was measured using the formula: V=(width^2×length)/2 V=(width^2×length)/2
The experiment was performed in 4 groups: Fc (control group), Fc+Cpt group, 2C8H11 group, and 2C8H11+Cpt group. […] Meanwhile, combined treatment with 2C8H11 and Cpt delayed tumor growth by 47% compared with Fc.

B1: 2C8H11: humanized anti-Ang2 human IgG1 antibody from mouse 2C8; VH SEQ ID NO: 55, VL SEQ ID NO: 56 (antibody, V domains shown)
VH: QVQLVQSGAEVKKPGASVKVSCKASGYTFTSYWMHWVRQAPGQGLEWMGMIDPSDSETRLNQKFKDRVTMTRDTSTSTVYMELSSLRSEDTAVYYCARRFYYGSDWYFDVWGQGTLVTVSS
VL: DIQLTQSPSFLSASVGDRVTITCKASQDVGTAVAWYQQKPGKAPKLLIYWASTRHTGVPSRFSGSGSGTEFTLTISSLQPEDFATYYCQQYSSYPLTFGQGTKVEIK
modifications: human IgG1 constant regions; VH; VL
[1]
  phosphorylation of Tie2: strongly induced in a dose-dependent manner
[2]
  vascular leakage induced by TNF-α (passage of FITC-dextran): significantly inhibited
[3]
  tumor growth inhibition compared with Fc: 29%
